{"source": "paper PMC10923870", "about": "“A three-level regulatory mechanism of the aldo-keto reductase subfamily AKR12D” (Nature Communications, 2024)", "molecules": {"B1": {"name": "AKRtyl (tylosin reductase, aldo-keto reductase AKR12D1) (enzyme, S. fradiae)", "chain": "MEYTQLGRIGLKVSRLVLGTMNFGPTTDEAESHAIMDAALDAGINFFDTANVYGWGENKGRTEEILGSWFAQGGDRRDKVVLATKVYGNMGLDGPAWPNHDKLSALNIRRSVDASLKRLGTDHIDLYQFHHVDRDTPWDEIWQAMDVLVRQGKILYVGSSNFAGWNIAQANETAARHGRLGLVSEQCLYNLCERRAEMEVVPAAREYGLGVIAWSPLHGGLLGGAIRKEQEGGNRRAASGRAADALKDPQQREQIQRYEDLLDKHGLEPGEVALAWLLTRPGVTGPIVGPRTADQLASAVRAAELTLTDEVLTALDEIFPGPGPSPEAFAW", "notes": "AKRtyl, tylosin reductase of the tylosin producer S. fradiae, UniProt A0A3R7J519; protein coding gene cloned into pET28a between NdeI and XhoI; Octamer made of two homotetramers; also called WT; source: E. coli BL21 (DE3), purified (Ni-NTA, size-exclusion chromatography on Superdex 200 increase)"}}, "key": {"[1]": {"tested_on": "NC(=O)C1=CN([C@@H]2O[C@H](COP(=O)(O)OP(=O)(O)OC[C@H]3O[C@@H](n4cnc5c(N)ncnc54)[C@H](OP(=O)(O)O)[C@@H]3O)[C@@H](O)[C@H]2O)C=CC1", "experiment": "tryptophan fluorescence quenching (equilibrium and stopped-flow); steady-state kinetics (Km)", "assay_type": "biochemical, Streptomyces xinghaiensis", "settings": "Trp331 of the C-terminal tail loop contributes to binding of both NADPHs; varied: cofactor"}, "AKRtyl": {"molecular_target": "T1, AKRtyl (Streptomyces xinghaiensis, UniProt A0A3R7J519)", "T1 construct": "gene SFRA_012675; N-terminally His6-tagged AKRtyl, octamer", "experiment": "X-ray crystal structure ([…] Å), equilibrium tryptophan fluorescence quenching and stopped-flow", "assay_type": "binding"}, "AKR_coelicolor": {"molecular_target": "T2, AKR_coelicolor (Streptomyces coelicolor, UniProt Q9F2Z5)", "T2 construct": "gene SCO4352", "T2 sequence (Q9F2Z5 1-330)": "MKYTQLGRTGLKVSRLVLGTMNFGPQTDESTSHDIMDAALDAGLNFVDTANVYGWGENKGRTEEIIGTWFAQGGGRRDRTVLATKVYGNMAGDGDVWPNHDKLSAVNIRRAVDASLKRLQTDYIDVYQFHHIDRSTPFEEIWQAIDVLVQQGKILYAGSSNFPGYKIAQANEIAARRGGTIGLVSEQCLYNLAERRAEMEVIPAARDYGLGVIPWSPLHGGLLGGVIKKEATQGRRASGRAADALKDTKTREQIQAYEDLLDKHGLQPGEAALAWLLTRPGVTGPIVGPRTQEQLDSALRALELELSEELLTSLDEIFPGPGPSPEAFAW", "experiment": "steady-state kinetics, inhibition at high NADPH concentration", "assay_type": "biochemical"}, "[2]": {"molecular_target": "the molecule itself", "experiment": "crystal structure; sitting-drop vapour diffusion at 20 °C; AKRtyl at 10 mg/ml in 10 mM Tris-HCl pH 7.5, 150 mM NaCl; purified-state, apo, NADP(H), NADP+-tylosin and tylosin forms, all octameric"}}}
{"molecule": "AKRtyl (Streptomyces xinghaiensis; W331A)", "values": [{"measurement": "K0.5", "setting": "[1]", "value": 11.03, "unit": "µM"}, {"measurement": "kcat", "setting": "[1]", "value": "0.18 ± 0.01", "unit": "s⁻¹"}, {"measurement": "kcat/Km", "setting": "[1]", "value": 16300, "unit": "M⁻¹ s⁻¹"}]}
{"molecule": "NC(=O)C1=CN([C@@H]2O[C@H](COP(=O)(O)OP(=O)(O)OC[C@H]3O[C@@H](n4cnc5c(N)ncnc54)[C@H](OP(=O)(O)O)[C@@H]3O)[C@@H](O)[C@H]2O)C=CC1", "note": "[NADPH]", "values": [{"measurement": "Kd", "setting": "AKRtyl", "value": 450, "unit": "nM"}, {"measurement": "steady-state kinetics, inhibition at high NADPH concentration", "setting": "AKR_coelicolor", "value": "inhibition by the cofactor NADPH at high concentrations was also observed for these two AKRs"}]}
{"molecule": "B1", "values": [{"measurement": "stoichiometry N", "setting": "[2]", "value": 8}]}
